B1: TRIM19: human RING type E3 ligase expressed from lentiviral vector (protein, UniProt P29590 1-882, looked up)
Protein PML: MEPAPARSPRPQQDPARPQEPTMPPPETPSEGRQPSPSPSPTERAPASEEEFQFLRCQQCQAEAKCPKLLPCLHTLCSGCLEASGMQCPICQAPWPLGADTPALDNVFFESLQRRLSVYRQIVDAQAVCTRCKESADFWCFECEQLLCAKCFEAHQWFLKHEARPLAELRNQSVREFLDGTRKTNNIFCSNPNHRTPTLTSIYCRGCSKPLCCSCALLDSSHSELKCDISAEIQQRQEELDAMTQALQEQDSAFGAVHAQMHAAVGQLGRARAETEELIRERVRQVVAHVRAQERELLEAVDARYQRDYEEMASRLGRLDAVLQRIRTGSALVQRMKCYASDQEVLDMHGFLRQALCRLRQEEPQSLQAAVRTDGFDEFKVRLQDLSSCITQGKDAAVSKKASPEAASTPRDPIDVDLPEEAERVKAQVQALGLAEAQPMAVVQSVPGAHPVPVYAFSIKGPSYGEDVSNTTTAQKRKCSQTQCPRKVIKMESEEGKEARLARSSPEQPRPSTSKAVSPPHLDGPPSPRSPVIGSEVFLPNSNHVASGAGEAEERVVVISSSEDSDAENSSSRELDDSSSESSDLQLEGPSTLRVLDENLADPQAEDRPLVFFDLKIDNETQKISQLAAVNRESKFRVVIQPEAFFSIYSKAVSLEVGLQHFLSFLSSMRRPILACYKLWGPGLPNFFRALEDINRLWEFQEAISGFLAALPLIRERVPGASSFKLKNLAQTYLARNMSERSAMAAVLAMRDLCRLLEVSPGPQLAQHVYPFSSLQCFASLQPLVQAAVLPRAEARLLALHNVSFMELLSAHRRDRQGGLKKYSRYLSLQTTTLPPAQPAFNLQALGTYFEGLLEGPALARAEGVSTPLAGRGLAERASQQS
B2: TRIM20: human RING type E3 ligase expressed from lentiviral vector (protein, UniProt O15553 1-781, looked up)
Pyrin: MAKTPSDHLLSTLEELVPYDFEKFKFKLQNTSVQKEHSRIPRSQIQRARPVKMATLLVTYYGEEYAVQLTLQVLRAINQRLLAEELHRAAIQEYSTQENGTDDSAASSSLGENKPRSLKTPDHPEGNEGNGPRPYGGGAASLRCSQPEAGRGLSRKPLSKRREKASEGLDAQGKPRTRSPALPGGRSPGPCRALEGGQAEVRLRRNASSAGRLQGLAGGAPGQKECRPFEVYLPSGKMRPRSLEVTISTGEKAPANPEILLTLEEKTAANLDSATEPRARPTPDGGASADLKEGPGNPEHSVTGRPPDTAASPRCHAQEGDPVDGTCVRDSCSFPEAVSGHPQASGSRSPGCPRCQDSHERKSPGSLSPQPLPQCKRHLKQVQLLFCEDHDEPICLICSLSQEHQGHRVRPIEEVALEHKKKIQKQLEHLKKLRKSGEEQRSYGEEKAVSFLKQTEALKQRVQRKLEQVYYFLEQQEHFFVASLEDVGQMVGQIRKAYDTRVSQDIALLDALIGELEAKECQSEWELLQDIGDILHRAKTVPVPEKWTTPQEIKQKIQLLHQKSEFVEKSTKYFSETLRSEMEMFNVPELIGAQAHAVNVILDAETAYPNLIFSDDLKSVRLGNKWERLPDGPQRFDSCIIVLGSPSFLSGRRYWEVEVGDKTAWILGACKTSISRKGNMTLSPENGYWVVIMMKENEYQASSVPPTRLLIKEPPKRVGIFVDYRVGSISFYNVTARSHIYTFASCSFSGPLQPIFSPGTRDGGKNTAPLTICPVGGQGPD
modifications: lentiviral expression
notes: human RING type E3 ligase expressed from lentiviral vector
B3: RLIM: human RING type E3 ligase expressed from lentiviral vector (protein, UniProt Q9NVW2 1-624, looked up)
E3 ubiquitin-protein ligase …: MENSDSNDKGSGDQSAAQRRSQMDRLDREEAFYQFVNNLSEEDYRLMRDNNLLGTPGESTEEELLRRLQQIKEGPPPQNSDENRGGDSSDDVSNGDSIIDWLNSVRQTGNTTRSGQRGNQSWRAVSRTNPNSGDFRFSLEINVNRNNGSQNSENENEPSARRSSGENVENNSQRQVENPRSESTSARPSRSERNSTEALTEVPPTRGQRRARSRSPDHRRTRARAERSRSPLHPMSEIPRRSHHSISSQTFEHPLVNETEGSSRTRHHVTLRQQISGPELLSRGLFAASGTRNASQGAGSSDTAASGESTGSGQRPPTIVLDLQVRRVRPGEYRQRDSIASRTRSRSQTPNNTVTYESERGGFRRTFSRSERAGVRTYVSTIRIPIRRILNTGLSETTSVAIQTMLRQIMTGFGELSYFMYSDSDSEPTGSVSNRNMERAESRSGRGGSGGGSSSGSSSSSSSSSSSSSSSSSSSSPSSSSGGESSETSSDLFEGSNEGSSSSGSSGARREGRHRAPVTFDESGSLPFLSLAQFFLLNEDDDDQPRGLTKEQIDNLAMRSFGENDALKTCSVCITEYTEGNKLRKLPCSHEYHVHCIDRWLSENSTCPICRRAVLASGNRESVV
B4: TRIM22: human RING type E3 ligase expressed from lentiviral vector (protein, UniProt Q8IYM9 1-498, looked up)
E3 ubiquitin-protein ligase …: MDFSVKVDIEKEVTCPICLELLTEPLSLDCGHSFCQACITAKIKESVIISRGESSCPVCQTRFQPGNLRPNRHLANIVERVKEVKMSPQEGQKRDVCEHHGKKLQIFCKEDGKVICWVCELSQEHQGHQTFRINEVVKECQEKLQVALQRLIKEDQEAEKLEDDIRQERTAWKNYIQIERQKILKGFNEMRVILDNEEQRELQKLEEGEVNVLDNLAAATDQLVQQRQDASTLISDLQRRLRGSSVEMLQDVIDVMKRSESWTLKKPKSVSKKLKSVFRVPDLSGMLQVLKELTDVQYYWVDVMLNPGSATSNVAISVDQRQVKTVRTCTFKNSNPCDFSAFGVFGCQYFSSGKYYWEVDVSGKIAWILGVHSKISSLNKRKSSGFAFDPSVNYSKVYSRYRPQYGYWVIGLQNTCEYNAFEDSSSSDPKVLTLFMAVPPCRIGVFLDYEAGIVSFFNVTNHGALIYKFSGCRFSRPAYPYFNPWNCLVPMTVCPPSS
B5: TRIM23: human RING type E3 ligase expressed from lentiviral vector (protein, UniProt P36406 1-574, looked up)
E3 ubiquitin-protein ligase …: MATLVVNKLGAGVDSGRQGSRGTAVVKVLECGVCEDVFSLQGDKVPRLLLCGHTVCHDCLTRLPLHGRAIRCPFDRQVTDLGDSGVWGLKKNFALLELLERLQNGPIGQYGAAEESIGISGESIIRCDEDEAHLASVYCTVCATHLCSECSQVTHSTKTLAKHRRVPLADKPHEKTMCSQHQVHAIEFVCLEEGCQTSPLMCCVCKEYGKHQGHKHSVLEPEANQIRASILDMAHCIRTFTEEISDYSRKLVGIVQHIEGGEQIVEDGIGMAHTEHVPGTAENARSCIRAYFYDLHETLCRQEEMALSVVDAHVREKLIWLRQQQEDMTILLSEVSAACLHCEKTLQQDDCRVVLAKQEITRLLETLQKQQQQFTEVADHIQLDASIPVTFTKDNRVHIGPKMEIRVVTLGLDGAGKTTILFKLKQDEFMQPIPTIGFNVETVEYKNLKFTIWDVGGKHKLRPLWKHYYLNTQAVVFVVDSSHRDRISEAHSELAKLLTEKELRDALLLIFANKQDVAGALSVEEITELLSLHKLCCGRSWYIQGCDARSGMGLYEGLDWLSRQLVAAGVLDVA
B6: TRIM24: human RING type E3 ligase expressed from lentiviral vector (protein, UniProt O15164 1-1050, looked up)
Transcription intermediary …: MEVAVEKAVAAAAAASAAASGGPSAAPSGENEAESRQGPDSERGGEAARLNLLDTCAVCHQNIQSRAPKLLPCLHSFCQRCLPAPQRYLMLPAPMLGSAETPPPVPAPGSPVSGSSPFATQVGVIRCPVCSQECAERHIIDNFFVKDTTEVPSSTVEKSNQVCTSCEDNAEANGFCVECVEWLCKTCIRAHQRVKFTKDHTVRQKEEVSPEAVGVTSQRPVFCPFHKKEQLKLYCETCDKLTCRDCQLLEHKEHRYQFIEEAFQNQKVIIDTLITKLMEKTKYIKFTGNQIQNRIIEVNQNQKQVEQDIKVAIFTLMVEINKKGKALLHQLESLAKDHRMKLMQQQQEVAGLSKQLEHVMHFSKWAVSSGSSTALLYSKRLITYRLRHLLRARCDASPVTNNTIQFHCDPSFWAQNIINLGSLVIEDKESQPQMPKQNPVVEQNSQPPSGLSSNQLSKFPTQISLAQLRLQHMQQQVMAQRQQVQRRPAPVGLPNPRMQGPIQQPSISHQQPPPRLINFQNHSPKPNGPVLPPHPQQLRYPPNQNIPRQAIKPNPLQMAFLAQQAIKQWQISSGQGTPSTTNSTSSTPSSPTITSAAGYDGKAFGSPMIDLSSPVGGSYNLPSLPDIDCSSTIMLDNIVRKDTNIDHGQPRPPSNRTVQSPNSSVPSPGLAGPVTMTSVHPPIRSPSASSVGSRGSSGSSSKPAGADSTHKVPVVMLEPIRIKQENSGPPENYDFPVVIVKQESDEESRPQNANYPRSILTSLLLNSSQSSTSEETVLRSDAPDSTGDQPGLHQDNSSNGKSEWLDPSQKSPLHVGETRKEDDPNEDWCAVCQNGGELLCCEKCPKVFHLSCHVPTLTNFPSGEWICTFCRDLSKPEVEYDCDAPSHNSEKKKTEGLVKLTPIDKRKCERLLLFLYCHEMSLAFQDPVPLTVPDYYKIIKNPMDLSTIKKRLQEDYSMYSKPEDFVADFRLIFQNCAEFNEPDSEVANAGIKLENYFEELLKNLYPEKRFPKPEFRNESEDNKFSDDSDDDFVQPRKKRLKSIEERQLLK
B7: TRIM26: human RING type E3 ligase expressed from lentiviral vector (protein, UniProt Q12899 1-539, looked up)
Tripartite motif-containing …: MATSAPLRSLEEEVTCSICLDYLRDPVTIDCGHVFCRSCTTDVRPISGSRPVCPLCKKPFKKENIRPVWQLASLVENIERLKVDKGRQPGEVTREQQDAKLCERHREKLHYYCEDDGKLLCVMCRESREHRPHTAVLMEKAAQPHREKILNHLSTLRRDRDKIQGFQAKGEADILAALKKLQDQRQYIVAEFEQGHQFLREREEHLLEQLAKLEQELTEGREKFKSRGVGELARLALVISELEGKAQQPAAELMQDTRDFLNRYPRKKFWVGKPIARVVKKKTGEFSDKLLSLQRGLREFQGKLLRDLEYKTVSVTLDPQSASGYLQLSEDWKCVTYTSLYKSAYLHPQQFDCEPGVLGSKGFTWGKVYWEVEVEREGWSEDEEEGDEEEEGEEEEEEEEAGYGDGYDDWETDEDEESLGDEEEEEEEEEEEVLESCMVGVARDSVKRKGDLSLRPEDGVWALRLSSSGIWANTSPEAELFPALRPRRVGIALDYEGGTVTFTNAESQELIYTFTATFTRRLVPFLWLKWPGTRLLLRP
modifications: lentiviral expression
notes: as for B2

These molecules were tested on coxsackievirus B3 (CVB3-GFP). Conditions: HeLa cells, GFP-positive cells within RFP-positive gate, replicate R1.
Type: cell-based

Molecule | Percent Infected R1 [%]
B1 | 60.8
B2 | 78.8
B3 | 82
B4 | 49.4
B5 | 61.5
B6 | 69.5
B7 | 49.3

Same assay, conditions: HeLa cells, replicate R1

Molecule | Z score R1
B1 | −0.354
B2 | −0.125
B3 | −0.08
B4 | −0.499
B5 | −0.345
B6 | −0.243
B7 | −0.5
